Tests used:
phyB = target: T1, phyB (Arabidopsis thaliana, UniProt P14713); experiment: in vitro kinase assay, autoradiogram; format: biochemical; settings: PIF1 as co-substrate, 10 mM MgCl2, pH 7.5, 28 °C; labelled compound (gamma-32P)
T1 construct: full length (1172 aa), strep-tagged from Pichia pastoris GS115 or GFP fusion from Saccharomyces cerevisiae; holoprotein with phycocyanobilin; dimer
T1 sequence (P14713 1-1172): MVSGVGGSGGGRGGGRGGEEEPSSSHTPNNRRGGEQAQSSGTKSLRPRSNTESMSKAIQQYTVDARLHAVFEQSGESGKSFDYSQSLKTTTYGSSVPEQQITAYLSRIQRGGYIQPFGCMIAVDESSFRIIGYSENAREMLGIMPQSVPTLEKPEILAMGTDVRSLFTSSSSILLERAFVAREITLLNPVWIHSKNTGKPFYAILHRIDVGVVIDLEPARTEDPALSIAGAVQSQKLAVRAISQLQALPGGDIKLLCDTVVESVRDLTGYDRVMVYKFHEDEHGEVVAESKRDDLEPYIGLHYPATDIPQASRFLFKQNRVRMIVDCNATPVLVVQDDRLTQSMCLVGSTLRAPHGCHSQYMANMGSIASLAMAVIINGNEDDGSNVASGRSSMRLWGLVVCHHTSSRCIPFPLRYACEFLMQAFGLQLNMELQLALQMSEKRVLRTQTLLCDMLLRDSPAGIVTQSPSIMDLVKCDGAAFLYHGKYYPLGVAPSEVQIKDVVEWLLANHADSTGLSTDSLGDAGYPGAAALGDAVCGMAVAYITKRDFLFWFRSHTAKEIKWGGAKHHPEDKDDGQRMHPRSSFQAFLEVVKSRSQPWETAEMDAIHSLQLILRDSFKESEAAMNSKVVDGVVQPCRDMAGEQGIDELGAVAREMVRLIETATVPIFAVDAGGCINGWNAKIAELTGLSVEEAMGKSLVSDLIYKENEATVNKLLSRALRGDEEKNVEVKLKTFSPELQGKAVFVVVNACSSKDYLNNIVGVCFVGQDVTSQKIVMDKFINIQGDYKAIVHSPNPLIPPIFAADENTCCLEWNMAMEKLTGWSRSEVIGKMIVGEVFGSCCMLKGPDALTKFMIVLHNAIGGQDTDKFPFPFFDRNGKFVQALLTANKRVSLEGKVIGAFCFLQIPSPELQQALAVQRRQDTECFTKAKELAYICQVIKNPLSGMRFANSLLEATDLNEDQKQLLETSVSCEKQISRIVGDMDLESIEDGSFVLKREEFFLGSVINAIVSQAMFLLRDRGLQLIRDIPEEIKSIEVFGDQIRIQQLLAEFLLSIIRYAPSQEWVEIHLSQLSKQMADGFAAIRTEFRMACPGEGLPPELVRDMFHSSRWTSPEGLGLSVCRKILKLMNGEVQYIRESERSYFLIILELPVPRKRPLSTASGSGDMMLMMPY

[1] = target: T2, phyB-GFP FL purified from yeast (Saccharomyces cerevisiae) (Arabidopsis, UniProt P14713 1-1172, phycocyanobilin (PCB) chromophore assembled); experiment: pull-down; in vitro: phytochromes purified from yeast (S. cerevisiae) and GST-PIF1; light-dependent; settings: both partners purified
T2 construct: not shown: GFP, C-terminal, kept
T2 sequence (looked up): T1 sequence (P14713 1-1172)

[2] = target: T3, phyB-GFP ΔC purified from yeast (Saccharomyces cerevisiae) (Arabidopsis, UniProt P14713 1-1092, phycocyanobilin (PCB) chromophore assembled); experiment: as above; settings: both partners purified
T3 construct: phytochrome B (phyB), Arabidopsis, residues 1-1092 (lacks the last 80 amino acids); The methods describe the yeast purification only for the full-length protein; also called phyB ΔC-GFP; source: Saccharomyces cerevisiae, purified; not shown: GFP, C-terminal, kept
T3 sequence (looked up): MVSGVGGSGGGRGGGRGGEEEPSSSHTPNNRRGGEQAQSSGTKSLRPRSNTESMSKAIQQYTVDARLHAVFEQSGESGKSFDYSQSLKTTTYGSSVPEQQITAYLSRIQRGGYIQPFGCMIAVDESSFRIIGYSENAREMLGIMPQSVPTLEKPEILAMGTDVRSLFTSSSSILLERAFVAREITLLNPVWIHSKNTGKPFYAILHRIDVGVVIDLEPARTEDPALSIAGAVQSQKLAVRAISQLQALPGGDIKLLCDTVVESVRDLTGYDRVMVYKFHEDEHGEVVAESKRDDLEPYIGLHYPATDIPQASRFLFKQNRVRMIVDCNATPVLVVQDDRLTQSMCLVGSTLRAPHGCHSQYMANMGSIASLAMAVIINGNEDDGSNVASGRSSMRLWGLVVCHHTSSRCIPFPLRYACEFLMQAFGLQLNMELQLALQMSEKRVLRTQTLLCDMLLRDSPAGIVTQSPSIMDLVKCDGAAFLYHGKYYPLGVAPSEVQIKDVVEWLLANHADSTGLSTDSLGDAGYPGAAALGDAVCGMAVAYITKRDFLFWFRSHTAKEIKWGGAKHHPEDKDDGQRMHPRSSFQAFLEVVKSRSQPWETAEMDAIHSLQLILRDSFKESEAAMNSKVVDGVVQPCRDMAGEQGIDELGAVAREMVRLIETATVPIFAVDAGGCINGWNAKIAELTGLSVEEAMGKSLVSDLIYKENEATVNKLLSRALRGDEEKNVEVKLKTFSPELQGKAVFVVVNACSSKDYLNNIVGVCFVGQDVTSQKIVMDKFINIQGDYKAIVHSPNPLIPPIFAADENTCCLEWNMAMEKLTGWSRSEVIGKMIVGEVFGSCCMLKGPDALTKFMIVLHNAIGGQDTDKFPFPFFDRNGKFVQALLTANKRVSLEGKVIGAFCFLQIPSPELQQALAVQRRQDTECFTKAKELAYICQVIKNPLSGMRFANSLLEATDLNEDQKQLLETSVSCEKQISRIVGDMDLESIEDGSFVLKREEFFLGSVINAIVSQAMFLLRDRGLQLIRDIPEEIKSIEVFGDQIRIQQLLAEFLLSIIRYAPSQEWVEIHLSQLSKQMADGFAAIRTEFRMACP

## Nc1ncnc2c1ncn2[C@@H]1O[C@H](COP(=O)(O)OP(=O)(O)OP(=O)(O)O)[C@@H](O)[C@H]1O [ATP]
phyB
  in vitro kinase assay, autoradiogram: both SPA1 and phyB independently phosphorylates PIF1 in vitro

B1: GST-PIF1-strep (natural protein, Arabidopsis, UniProt Q8GZM7 1-478, looked up)
chain: MHHFVPDFDTDDDYVNNHNSSLNHLPRKSITTMGEDDDLMELLWQNGQVVVQNQRLHTKKPSSSPPKLLPSMDPQQQPSSDQNLFIQEDEMTSWLHYPLRDDDFCSDLLFSAAPTATATATVSQVTAARPPVSSTNESRPPVRNFMNFSRLRGDFNNGRGGESGPLLSKAVVRESTQVSPSATPSAAASESGLTRRTDGTDSSAVAGGGAYNRKGKAVAMTAPAIEITGTSSSVVSKSEIEPEKTNVDDRKRKEREATTTDETESRSEETKQARVSTTSTKRSRAAEVHNLSERKRRDRINERMKALQELIPRCNKSDKASMLDEAIEYMKSLQLQIQMMSMGCGMMPMMYPGMQQYMPHMAMGMGMNQPIPPPSFMPFPNMLAAQRPLPTQTHMAGSGPQYPVHASDPSRVFVPNQQYDPTSGQPQYPAGYTDPYQQFRGLHPTQPPQFQNQATSYPSSSRVSSSKESEDHGNHTTG
notes: source: E. coli BL21(DE3), purified (Strep-Tactin Sepharose); not shown: GST, N-terminal, kept; Strep tag, C-terminal, kept
[1]
  binding result: binds
[2]
  binding result: binds
